Experimental data taken from patent US20200369729A1 (CENTRE NATIONAL DE LA RECHERCHE SCIENTIFIQUE, published 2020).
*: point of attachment. Succinimide(1-Et,3-yl) = CCN1C(=O)CC(*)C1=O

B1: MUB40#1 (peptide)
peptide: Ac-C(Succinimide(1-Et,3-yl))TAEGIKKFEGDGYELFKDNFPAGEKFDNDDTNDQFYTVIF-NH2
modifications: not fully specified
notes: Unlabelled peptide as used in analytical gel filtration; trimer
B2: MUB40#3 (peptide)
peptide: Ac-C(Succinimide(1-Et,3-yl))DQMLRQDDLDGYTDETIPYSTAEGIKKFEGDGYELFKDNF-NH2
modifications: not fully specified
notes: Unlabelled peptide as used in analytical gel filtration; 'rather organized as tetramers'
B3: MUB40#4 (peptide)
peptide: Ac-C(Succinimide(1-Et,3-yl))VHVQYIDGETDQMLRQDDLDGYTDETIPYSTAEGIKKFEG-NH2
modifications: not fully specified
notes: as for B2
B4: MUB40#2 (peptide)
peptide: Ac-C(Succinimide(1-Et,3-yl))GYTDETIPYSTAEGIKKFEGDGYELFKDNFPAGEKFDNDD-NH2
modifications: not fully specified
notes: as for B2

Target: the molecule itself
Experiment: self-association, analytical gel filtration in 20 mM phosphate buffer, 150 mM NaCl, pH 7.4
Procedure: (A) Schematic representation of the four 40-amino acid peptides named MUB₄₀#1, MUB₄₀#2, MUB₄₀#3, MUB₄₀#4, overlapping and covering the MUB₇₀ sequence (Coïc et al., 2012) (from C-terminal to N-terminal, see FIG. 2). (B) Human colonic mucus layer was labelled with the MUB₄₀#1-Cy5 fluorescent conjugate (1 μg/mL, magenta). (C) Colonic goblet cell granules were labelled with MUB₄₀#1-Cy5 (1 μg/mL, magenta), which was not the case for MUB₇₀-Cy5 (Coïc et al., 2012) or MUB₄₀#2-#4 peptides (data not shown). Actin (red); bar, 20 μm. (D) Elution profiles of MUB₄₀ peptides (#1-#4) were obtained by analytical gel filtration (absorbance at 280 nm). Samples were prepared at 10 μg/ml in the elution buffer (20 mM phosphate buffer, 150 mM NaCl, pH7.4). MUB₄₀#1 assembled as a trimer, similarly to MUB₇₀ (Coïc et al., 2012), not MUB₄₀#2, MUB₄₀#3, and MUB₄₀#4. […] (E) Far-UV Circular Dichroism spectra of the four MUB₄₀ peptides at 60 μM in 20 mM sodium phosphate buffer (pH 7.4) in the presence of 50 mM NaCl, showing a specific structural signal of MUB₄₀#1, compared to others peptides. (F) A human colonic explant was infected with Shigella flexneri pGFP (green) and labelled with MUB₄₀#1-Cy5 (1 μg/mL, magenta) and Dapi (blue) after fixation and permeabilization. The colonic mucus layer and infiltrated neutrophils (see (G)), were labelled with MUB₄₀#1-Cy5, as imaged by two-photon microscopy. Bar, 50 μm (G) The labelling of polymorphonuclear neutrophils with MUB₄₀#1-Cy5 (1 μg/mL, magenta) was confirmed on human purified neutrophils, showing a granular staining. Nucleus was stained with Dapi (blue). Bar, 5 μm.

Binding result, binds:
B1, B2, B3, B4
